Reference: paper doi:10.1101/2025.09.18.675241 (bioRxiv, 2025)

Legend:
FAM171A2 Ecto-AP (human) = FAM171A2 Ecto-AP (human) (UniProt A8MVW0); assay: ELISA
[1] = target: FAM171A2 ectodomain (K30-T315), Fc cleaved off (human) (UniProt A8MVW0); assay: SEC-MALS
[2] = target: FAM171A2 ectodomain (K30-T315), Fc cleaved off (human) (UniProt A8MVW0); assay: AUC
[3] = target: FAM171A2 ectodomain (K30-T315), Fc cleaved off (human) (UniProt A8MVW0); assay: SEC-SAXS
AUC [4] = target: the molecule itself; assay: AUC
SEC-MALS = target: the molecule itself; assay: SEC-MALS
AUC [5] = target: the molecule itself; assay: AUC; remark: listed apart in the source
SEC = target: the molecule itself; assay: SEC
FAM171A1 Ecto-AP = target: T1, FAM171A1 Ecto-AP (human, UniProt Q5VUB5 23-303); assay: ELISA
T1 sequence: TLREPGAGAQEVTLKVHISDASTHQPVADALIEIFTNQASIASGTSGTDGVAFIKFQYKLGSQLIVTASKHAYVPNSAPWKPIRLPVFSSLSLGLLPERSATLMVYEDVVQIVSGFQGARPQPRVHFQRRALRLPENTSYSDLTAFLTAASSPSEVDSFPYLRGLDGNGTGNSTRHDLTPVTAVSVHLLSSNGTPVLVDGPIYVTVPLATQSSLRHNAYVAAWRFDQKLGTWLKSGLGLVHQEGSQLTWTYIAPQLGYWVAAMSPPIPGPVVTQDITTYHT

FAM171A2 Ecto-Fc (from UniProt A8MVW0 30-315) (Fc fusion)
Kd (FAM171A2 Ecto-AP (human)): 389 nM

FAM171A2 ectodomain (K30-T315), Fc cleaved off (from UniProt A8MVW0 30-315) (domain or fragment)
stoichiometry N [1]: 3 | percent of the mixture as trimer [2]: 75% | stoichiometry N [2]: 3 | stoichiometry N [3]: 3

B1: FAM171A1 ectodomain (T23-T303), Fc cleaved off (domain or fragment)
chain: TLREPGAGAQEVTLKVHISDASTHQPVADALIEIFTNQASIASGTSGTDGVAFIKFQYKLGSQLIVTASKHAYVPNSAPWKPIRLPVFSSLSLGLLPERSATLMVYEDVVQIVSGFQGARPQPRVHFQRRALRLPENTSYSDLTAFLTAASSPSEVDSFPYLRGLDGNGTGNSTRHDLTPVTAVSVHLLSSNGTPVLVDGPIYVTVPLATQSSLRHNAYVAAWRFDQKLGTWLKSGLGLVHQEGSQLTWTYIAPQLGYWVAAMSPPIPGPVVTQDITTYHT
modifications: four N-linked glycosylation sites occupied by Man5GlcNAc2 (from HEK293S GnTI- cells)
stoichiometry N (AUC [4]): 2.7 monomers | stoichiometry N (SEC-MALS): 3 | stoichiometry N (AUC [5]): 2.6 monomers

B2: FAM171A1 ectodomain Y241S/L255N (domain or fragment)
chain: TLREPGAGAQEVTLKVHISDASTHQPVADALIEIFTNQASIASGTSGTDGVAFIKFQYKLGSQLIVTASKHAYVPNSAPWKPIRLPVFSSLSLGLLPERSATLMVYEDVVQIVSGFQGARPQPRVHFQRRALRLPENTSYSDLTAFLTAASSPSEVDSFPYLRGLDGNGTGNSTRHDLTPVTAVSVHLLSSNGTPVLVDGPIYVTVPLATQSSLRHNASVAAWRFDQKLGTWNKSGLGLVHQEGSQLTWTYIAPQLGYWVAAMSPPIPGPVVTQDITTYHT
modifications: two introduced N-linked glycosylation sites
stoichiometry N (SEC): 3

B3: FAM171A1 Ecto-Fc (Fc fusion)
chain: TLREPGAGAQEVTLKVHISDASTHQPVADALIEIFTNQASIASGTSGTDGVAFIKFQYKLGSQLIVTASKHAYVPNSAPWKPIRLPVFSSLSLGLLPERSATLMVYEDVVQIVSGFQGARPQPRVHFQRRALRLPENTSYSDLTAFLTAASSPSEVDSFPYLRGLDGNGTGNSTRHDLTPVTAVSVHLLSSNGTPVLVDGPIYVTVPLATQSSLRHNAYVAAWRFDQKLGTWLKSGLGLVHQEGSQLTWTYIAPQLGYWVAAMSPPIPGPVVTQDITTYHT
Kd (FAM171A1 Ecto-AP): 9 ± 2 nM

B4: FAM171A1 ectodomain L255N (domain or fragment)
chain: TLREPGAGAQEVTLKVHISDASTHQPVADALIEIFTNQASIASGTSGTDGVAFIKFQYKLGSQLIVTASKHAYVPNSAPWKPIRLPVFSSLSLGLLPERSATLMVYEDVVQIVSGFQGARPQPRVHFQRRALRLPENTSYSDLTAFLTAASSPSEVDSFPYLRGLDGNGTGNSTRHDLTPVTAVSVHLLSSNGTPVLVDGPIYVTVPLATQSSLRHNAYVAAWRFDQKLGTWNKSGLGLVHQEGSQLTWTYIAPQLGYWVAAMSPPIPGPVVTQDITTYHT
modifications: introduced N-linked glycosylation site
stoichiometry N (SEC): 3

B5: FAM171A1 ectodomain Y241S (domain or fragment)
chain: TLREPGAGAQEVTLKVHISDASTHQPVADALIEIFTNQASIASGTSGTDGVAFIKFQYKLGSQLIVTASKHAYVPNSAPWKPIRLPVFSSLSLGLLPERSATLMVYEDVVQIVSGFQGARPQPRVHFQRRALRLPENTSYSDLTAFLTAASSPSEVDSFPYLRGLDGNGTGNSTRHDLTPVTAVSVHLLSSNGTPVLVDGPIYVTVPLATQSSLRHNASVAAWRFDQKLGTWLKSGLGLVHQEGSQLTWTYIAPQLGYWVAAMSPPIPGPVVTQDITTYHT
modifications: introduced N-linked glycosylation site
stoichiometry N (SEC): 3
